Assay results as given in article PMC9023255, “Mechanisms of substrate recognition and N6-methyladenosine demethylation revealed by crystal structures of ALKBH5–RNA complexes”.

Target: ALKBH5 74-292 (human, UniProt Q6P6C2 74-292)
Assay: X-ray crystallography; Mn2+, sulfate in 2OG site (NOG added but not observed); 2.1 A, P32; GG(m6A)C ordered; Complex formation: 25 mM Tris pH 7.5, 400 uM protein, 333 uM RNA, 2 mM MnCl2, 2 or 10 mM NOG or 10 mM 2OG, on ice 30 min, then SEC in 25 mM Tris pH 7.5; mutant
Details: protein: recombinant; tags: N-terminal His6, removed by TEV protease; single strand

ALKBH5 74-292, sequence (Q6P6C2 74-292): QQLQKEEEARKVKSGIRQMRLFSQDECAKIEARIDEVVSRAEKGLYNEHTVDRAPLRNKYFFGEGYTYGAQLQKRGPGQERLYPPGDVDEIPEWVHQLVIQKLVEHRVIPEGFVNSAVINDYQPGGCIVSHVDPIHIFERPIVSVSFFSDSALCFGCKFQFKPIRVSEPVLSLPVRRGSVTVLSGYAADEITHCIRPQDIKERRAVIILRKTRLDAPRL

Question: Does UGGACUGC (ssRNA, N6-methyladenosine at position 4 (m6A)) [8-mer m6A ssRNA] bind?
Answer: binds
